Earlier results in publication PMC4623992.

Molecular target: TLR4 (Homo sapiens) (UniProt O00206)
Chain of UniProt O00206 (O00206 24-631): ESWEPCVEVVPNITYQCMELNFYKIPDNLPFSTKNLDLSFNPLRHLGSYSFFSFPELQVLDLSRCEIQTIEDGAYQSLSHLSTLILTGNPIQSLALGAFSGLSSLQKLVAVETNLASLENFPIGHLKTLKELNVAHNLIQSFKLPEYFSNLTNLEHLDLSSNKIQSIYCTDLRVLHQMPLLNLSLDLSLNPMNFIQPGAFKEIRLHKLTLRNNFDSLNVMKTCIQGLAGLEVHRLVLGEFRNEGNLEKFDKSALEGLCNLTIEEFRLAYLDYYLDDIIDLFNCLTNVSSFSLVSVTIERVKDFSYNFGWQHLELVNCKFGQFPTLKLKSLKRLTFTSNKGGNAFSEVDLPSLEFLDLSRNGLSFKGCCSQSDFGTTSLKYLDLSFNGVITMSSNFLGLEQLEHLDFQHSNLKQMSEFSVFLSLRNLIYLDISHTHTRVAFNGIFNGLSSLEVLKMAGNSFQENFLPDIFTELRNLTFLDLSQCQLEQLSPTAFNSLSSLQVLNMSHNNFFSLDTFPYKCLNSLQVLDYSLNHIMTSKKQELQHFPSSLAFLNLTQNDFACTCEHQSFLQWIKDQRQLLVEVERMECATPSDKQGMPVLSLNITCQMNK

MD-2 (from UniProt Q9Y6Y9)
Kd: 12 nM
